Ends that are not written are not given here.
T1: NPNA4 peptide (Plasmodium falciparum (isolate 3D7)., not fully specified)
T1 construct: source: synthetic peptide (InnoPep Inc)
T1 chain: NPNANPNANPNANPNA

T2: NPNA8 peptide (Plasmodium falciparum (isolate 3D7)., not fully specified)
T2 construct: source: synthetic peptide (InnoPep Inc)
T2 chain: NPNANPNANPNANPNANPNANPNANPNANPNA

T3: NPNA8 peptide (Plasmodium falciparum (isolate 3D7)., not fully specified)
T3 construct: source: synthetic peptide (InnoPep Inc, purity >=97%)
T3 chain: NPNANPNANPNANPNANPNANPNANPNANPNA

T4: NPNA4 peptide (Plasmodium falciparum (isolate 3D7)., not fully specified)
T4 construct: source: synthetic peptide (InnoPep Inc, purity >=97%)
T4 chain: NPNANPNANPNANPNA

B1: 337 Fab (Fab, V domains shown)
VH: QVQLVESGGGVVQPGRSLRLSCAASGFSFSTYGMHWVRQAPGKGLEWVALIWHDGSKKFYSESVRGRFTISRDNSMDTLYLQMSSLRAEDTAVYYCARDGADYFDSTGGAFDIWGQGTMVIVSS
VL: EIVMTQSPATLSVSPGERATLSCRASQSVSSNLAWYQQKPGQAPRLLIYGASTRATGIPARFSGSGSGTEFTLTISSLQSEDFATYYCQQYKTWWTFGQGTKVEIK
notes: also called mAb 337; source: ExpiCHO cells, purified (mAb Select PrismA or Capture Select, SEC)
B2: 337 Fab (Fab, V domains shown)
VH: QVQLVESGGGVVQPGRSLRLSCAASGFSFSTYGMHWVRQAPGKGLEWVALIWHDGSKKFYSESVRGRFTISRDNSMDTLYLQMSSLRAEDTAVYYCARDGADYFDSTGGAFDIWGQGTMVIVSS
VL: EIVMTQSPATLSVSPGERATLSCRASQSVSSNLAWYQQKPGQAPRLLIYGASTRATGIPARFSGSGSGTEFTLTISSLQSEDFATYYCQQYKTWWTFGQGTKVEIK
notes: source: ExpiCHO cells, purified (mAb Select PrismA or Capture Select, SEC)
B3: 239 Fab (Fab, V domains shown)
VH: QVQLVESGGGVVQPGRSLRLSCAASRLTFRNFGMHWVRQTPGKGLEWVAVIWHDGSNKFYADSVEGRFTISRDNSKNTLYLQMNSLRDEDTAIYYCAKDWGGASDRVFDYWGRGTLVIVSS
VL: DIQMTQSPSTLSASVGDRVTITCRASQSVSTSLAWYQQKPGKAPNLLIYQASTLYRGVPSRFSGSGSGTEFTLTIGSLQPDDFATYYCQHYNSYSRITFGQGTRLEIK
notes: also called mAb 239; source: ExpiCHO cells, purified (mAb Select PrismA or Capture Select, SEC)
B4: 239 Fab (Fab, V domains shown)
VH: QVQLVESGGGVVQPGRSLRLSCAASRLTFRNFGMHWVRQTPGKGLEWVAVIWHDGSNKFYADSVEGRFTISRDNSKNTLYLQMNSLRDEDTAIYYCAKDWGGASDRVFDYWGRGTLVIVSS
VL: DIQMTQSPSTLSASVGDRVTITCRASQSVSTSLAWYQQKPGKAPNLLIYQASTLYRGVPSRFSGSGSGTEFTLTIGSLQPDDFATYYCQHYNSYSRITFGQGTRLEIK
notes: as for B2
B5: 239R Fab (Fab, V domains shown)
VH: QVQLVESGGGVVQPGRSLRLSCAASRLTFSSYGMHWVRQTPGKGLEWVAVIWHDGSNKFYADSVKGRFTISRDNSKNTLYLQMNSLRDEDTAIYYCAKDWGGASDRVFDYWGRGTLVIVSS
VL: DIQMTQSPSTLSASVGDRVTITCRASQSVSTSLAWYQQKPGKAPNLLIYQASTLYTGVPSRFSGSGSGTEFTLTIGSLQPDDFATYYCQHYNSYSRITFGQGTRLEIK
notes: also called germline-reverted 239; source: ExpiCHO cells, purified (mAb Select PrismA or Capture Select, SEC)
B6: 356 Fab (Fab, V domains shown)
VH: QVQLVESGGGVVQPGRSLRLSCAASGFTFRNFGMHWVRQTPGKGLEWVAVIWHDGSNKFYADSVEGRFTISRDNSKNMIYLQMNSLRVEDTAIYYCARDSLFYDHDNSGYYGYWGQGTLVTVSS
VL: QIVMTQSPATVSVSPGERATLSCRASRSVTSKLAWYQQKPGQAPRLLIYGASTRATGIPARFSGSGSGTEFTLTISSLQSEDFAVYFCQQYNNGFTFGPGTKVDFK
notes: also called mAb 356; source: ExpiCHO cells, purified (mAb Select PrismA or Capture Select, SEC)
B7: 356R Fab (Fab, V domains shown)
VH: QVQLVESGGGVVQPGRSLRLSCAASGFTFSSYGMHWVRQTPGKGLEWVAVIWHDGSNKFYADSVKGRFTISRDNSKNMIYLQMNSLRVEDTAIYYCARDSLFYDHDNSGYYGYWGQGTLVTVSS
VL: EIVMTQSPATVSVSPGERATLSCRASQSVTSKLAWYQQKPGQAPRLLIYGASTRATGIPARFSGSGSGTEFTLTISSLQSEDFAVYFCQQYNNGFTFGPGTKVDFK
notes: also called Fab356R; germline-reverted 356; source: ExpiCHO cells, purified (mAb Select PrismA or Capture Select, SEC)
B8: 356R Fab (Fab, V domains shown)
VH: QVQLVESGGGVVQPGRSLRLSCAASGFTFSSYGMHWVRQTPGKGLEWVAVIWHDGSNKFYADSVKGRFTISRDNSKNMIYLQMNSLRVEDTAIYYCARDSLFYDHDNSGYYGYWGQGTLVTVSS
VL: EIVMTQSPATVSVSPGERATLSCRASQSVTSKLAWYQQKPGQAPRLLIYGASTRATGIPARFSGSGSGTEFTLTISSLQSEDFAVYFCQQYNNGFTFGPGTKVDFK
notes: also called germline-reverted 356; source: ExpiCHO cells, purified (mAb Select PrismA or Capture Select, SEC)
B9: 311 Fab (Fab, V domains shown)
VH: QVQLVESGGGVVPPGRSLRLSCATSGFTFSNYGMHWVRQAPGKGLEWVAIIWYDGSRNFYAASVEGRFTISRDNSKNTLYLQMNSLRVEDTAVYYCARAAYYDTSGYGDYWGQGTLVTVSS
VL: QSVLTQPPSVSGAPGQTVTISCTGGSSNIGAGYDVHWYQQLPGTAPKLLIYGNINRPSGVPDRFSGSKSGTSASLAITGLQAEDEADYYCQSYDRRLSGSWVFGGGTKLTVL
notes: also called mAb 311; source: ExpiCHO cells, purified (mAb Select PrismA or Capture Select, SEC)
B10: 311 Fab (Fab, V domains shown)
VH: QVQLVESGGGVVPPGRSLRLSCATSGFTFSNYGMHWVRQAPGKGLEWVAIIWYDGSRNFYAASVEGRFTISRDNSKNTLYLQMNSLRVEDTAVYYCARAAYYDTSGYGDYWGQGTLVTVSS
VL: QSVLTQPPSVSGAPGQTVTISCTGGSSNIGAGYDVHWYQQLPGTAPKLLIYGNINRPSGVPDRFSGSKSGTSASLAITGLQAEDEADYYCQSYDRRLSGSWVFGGGTKLTVL
notes: as for B2
B11: 311R Fab (Fab, V domains shown)
VH: QVQLVESGGGVVPPGRSLRLSCATSGFTFSSYGMHWVRQAPGKGLEWVAIIWYDGSNKFYAASVKGRFTISRDNSKNTLYLQMNSLRVEDTAVYYCARAAYYDTSGYGDYWGQGTLVTVSS
VL: QSVLTQPPSVSGAPGQTVTISCTGGSSNIGAGYDVHWYQQLPGTAPKLLIYGNINRPSGVPDRFSGSKSGTSASLAITGLQAEDEADYYCQSYDSSLSGSWVFGGGTKLTVL
notes: also called germline-reverted 311; source: ExpiCHO cells, purified (mAb Select PrismA or Capture Select, SEC)
B12: 227 Fab (Fab, V domains shown)
VH: QVQLVQSGGGVVQPGRSLRLSCVTSGFTFPAFGMHWVRQAPGKGLEWVAVIWYDGSKKYYADSVRGRFTISRDNSRNTLYLQMHSLRAEDTAVYYCARVKNYESSGYSQCLDYWGQGVLVTVAS
VL: QSVLTQPPSVSGAPGQRVTISCTGSSSNIGAGYDVHWYQQLPGTAPKLLIYGNGNRPSGVPDRFSGSKSGTSVSLAITGLQAEDEADYYCQSYDSSLSAFVFGTGTKVTVL
notes: also called mAb 227; source: ExpiCHO cells, purified (mAb Select PrismA or Capture Select, SEC)
B13: 227 Fab (Fab, V domains shown)
VH: QVQLVQSGGGVVQPGRSLRLSCVTSGFTFPAFGMHWVRQAPGKGLEWVAVIWYDGSKKYYADSVRGRFTISRDNSRNTLYLQMHSLRAEDTAVYYCARVKNYESSGYSQCLDYWGQGVLVTVAS
VL: QSVLTQPPSVSGAPGQRVTISCTGSSSNIGAGYDVHWYQQLPGTAPKLLIYGNGNRPSGVPDRFSGSKSGTSVSLAITGLQAEDEADYYCQSYDSSLSAFVFGTGTKVTVL
notes: as for B2
B14: 334 Fab (Fab, V domains shown)
VH: QVQLVESGGGVVQPGRSLTLSCAASGFTFSNYGMHWVRQTPGKGLAWVAIIWYDGSKTYYEDSVKGRFTISRDNSKNTLYLQMNSLRVDDTAVYYCARVRHSSSRHGSAFDLWGQGTLVTVSS
VL: VIQMTQSPSTLSASVGDRVTITCRASQSVSTWLAWYQQKPGQGPKLLIYEASSLESGVPSRFSGSGSGTEFTLTISSLQPDDFATYYCQQYNSYSFWTFGQGTKVEIK
notes: also called mAb 334; source: ExpiCHO cells, purified (mAb Select PrismA or Capture Select, SEC)
B15: 334 Fab (Fab, V domains shown)
VH: QVQLVESGGGVVQPGRSLTLSCAASGFTFSNYGMHWVRQTPGKGLAWVAIIWYDGSKTYYEDSVKGRFTISRDNSKNTLYLQMNSLRVDDTAVYYCARVRHSSSRHGSAFDLWGQGTLVTVSS
VL: VIQMTQSPSTLSASVGDRVTITCRASQSVSTWLAWYQQKPGQGPKLLIYEASSLESGVPSRFSGSGSGTEFTLTISSLQPDDFATYYCQQYNSYSFWTFGQGTKVEIK
notes: as for B2
B16: 364 Fab (Fab, V domains shown)
VH: QVQLVESGGGVVQPGGSLRLSCAASGFTFSGYGMHWVRQVPGKGLEWVAIIWFDGSQKYYADSVQGRFTISRDNSKKTLFLRMNSLRAEDTAVYYCAKVHDDEPTQDYWGQGTLVTVSS
VL: DIQMTQSPSTLSASVGDRVTITCRASQGISTSLAWYQQKPGKAPKLLIYKASSLESGVPSRFSGSGSGTEFTLTITSLQPEDFATYYCQQYKRYWTFGQGTKVEIK
notes: also called mAb 364; source: ExpiCHO cells, purified (mAb Select PrismA or Capture Select, SEC)

Assays:
Test in all cases: BLI
Conditions in all cases: both partners purified
[1] = biological target: T1, NPNA4 peptide
[2] = biological target: T2, NPNA8 peptide
[3] = biological target: T3, NPNA8 peptide
[4] = biological target: T4, NPNA4 peptide

| Binder | Kd [1] [nM] | koff [1] [s⁻¹] | kon [1] [M⁻¹ s⁻¹] | Kd [2] [nM] | koff [2] [s⁻¹] | kon [2] [M⁻¹ s⁻¹] | Kd [3] [nM] | Kd [4] [nM] |
| --- | --- | --- | --- | --- | --- | --- | --- | --- |
| B1 | 36.9 | 0.007 | 130000 | 39.4 | 0.0035 | 66000 | – | – |
| B2 | – | – | – | – | – | – | 39.4 | 36.9 |
| B3 | 44.7 | 0.0063 | 110000 | 7.2 | 0.00056 | 83000 | – | – |
| B4 | – | – | – | – | – | – | 7.22 | 44.7 |
| B5 | 165 | 0.033 | 410000 | 205 | 0.022 | 120000 | – | – |
| B6 | 123 | 0.013 | 80000 | 6.4 | 0.00056 | 87000 | – | – |
| B7 | – | – | – | – | – | – | 124 | 65 |
| B8 | 79 | 0.03 | 560000 | 124 | 0.017 | 79000 | – | – |
| B9 | 212 | 0.0041 | 27000 | 6.1 | 0.00025 | 66000 | – | – |
| B10 | – | – | – | – | – | – | 6.11 | 212 |
| B11 | 67.4 | 0.0088 | 71000 | 211 | 0.0051 | 71000 | – | – |
| B12 | 37.5 | 0.0058 | 130000 | 80.3 | 0.0035 | 40000 | – | – |
| B13 | – | – | – | – | – | – | 23.7 | 46.3 |
| B14 | 49.9 | 0.0021 | 53000 | 22.4 | 0.0013 | 52000 | – | – |
| B15 | – | – | – | – | – | – | 22.4 | 49.9 |
| B16 | 260 | 0.0027 | 43000 | 4.9 | 0.00027 | 65000 | – | – |

— article PMC10382551, “Affinity-matured homotypic interactions induce spectrum of PfCSP structures that influence protection from malaria infection” (Nature Communications, 2023)
